Results as given in US20050222009A1, “Dual phase - PNA conjugates for the delivery of PNA through the blood brain barrier” (priority 2003, published 2005).

Test system: PC12 cells
Experiment: Measurement of cellular toxicity by neutral red uptake
Type: cell-based, rat
Details: 48 hours incubation (FIG. 2); compared with control PNA
Method: As an in vitro models for neurons and for BBB we used the human neuroblastoma NMB cell line the rat catecholaminergic cell line PC12 and the mice brain-derived endothelial cell line bEND. NMB cells were adapted to grow in Dulbecco modified Eagle medium (DMEM) with 10% Hyclone calf serum (Simantov et al., 1996). PC12 cells were grown in DMEM, 10% horse serum and 5% calf serum. bEND3 cells were grown in DMEM, %10 calf serum supplemented with 2 mM glutamine. Cells were maintained in a 10% CO2 humidified incubator at 37° C. Cells were routinely sub-cultured every four to five days. When cells (5×10^3) were plated in 96 wells, dishes were pretreated with poly-L-ornithine.
PC12 cells were incubated with PNA or peptide-PNA conjugates for 48 hours. At the end of the incubation, cell morphology was examined by light microscopy. Medium was replaced with medium containing neutral red. Neutral-red uptake was determined by spectrophotometer and was used as an index for cellular toxicity (FIG. 2).

| Substance | neutral red uptake to PC12 cells (index for cellular toxicity) |
| --- | --- |
| CHK6HC-TTT GCT CTT ACT CAT-THRPPMWSPVWP [KBP10] | no significant difference |
| CHK6HC-TTT GCT CTT ACT CAT-HAIYPRH [KBP11] | no significant difference |
